Data as given in the supplement of paper PMC11908140.

B1: library; numbered along this chain (parent)
chain: MRKPRAAVGSGHRKQAASQEGRQKHAKNNSQAKPSACDGLARQPEEVVLQASVSSYHLFRDVAEVTAFRGSLLSWYDQEKRDLPWRRRAEDEMDLDRRAYAVWVSEVMLQQTQVATVINYYTGWMQKWPTLQDLASASLEEVNQLWAGLGYYSRGRRLQEGARKVVEELGGHMPRTAETLQQLLPGVGRYTAGAIASIAFGQATGVVDGNVARVLCRVRAIGADPSSTLVSQQLWGLAQQLVDPARPGDFNQAAMELGATVCTPQRPLCSQCPVESLCRARQRVEQEQLLASGSLSGSPDVEECAPNTGQCHLCLPPSEPWDQTLGVVNFPRKASRKPPREESSATCVLEQPGALGAQILLVQRPNSGLLAGLWEFPSVTWEPSEQLQRKALLQELQRWAGPLPATHLRHLGEVVHTFSHIKLTYQVYGLALEGQTPVTTVPPGARWLTQEEFHTAAVSTAMKKVFRVYQGQQPGTCMGSKRSQVSSPCSRKKPRMGQQVLDNFFRSHISTDAHSLNSAAQ

Variants of: B1
Assay: 8OG:A repair function score (normalized; synonymous = 0, nonsense = -1) (normalized log-likelihood score); higher = more repair activity (WT-like)
Details: with 8OG:A DNA repair reporter (GFP) in HEK-293 MUTYH KO cells
Procedure: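 Saturation mutagenesis (NNN codon scan) of the MUTYH cDNA (521-aa nuclear isoform NM_001048174.1 / NP_001041639), stably expressed under doxycycline induction in HEK-293 MUTYH knockout cells. Cells were co-transfected with an 8OG:A-bearing GFP repair reporter plus mCherry and sorted 72 h later into GFP+ and GFP− bins, three replicates per tile. The Rosace log2 enrichment (GFP+ vs GFP−) was converted per tile to a normalized function score with synonymous variants centered at 0 and nonsense variants (codons 1-471) at -1; low-abundance variants were removed.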

Going from MRSPRAAVGSGHRKQAASQEGRQKHAKNNSQAKPSACDGLARQPEEVVLQASVSSYHLFRDVAEVTAFRGSLLSWYDQEKRDLPWRRRAEDEMDLDRRAYAVWVSEVMLQQTQVATVINYYTGWMQKWPTLQDLASASLEEVNQLWAGLGYYSRGRRLQEGARKVVEELGGHMPRTAETLQQLLPGVGRYTAGAIASIAFGQATGVVDGNVARVLCRVRAIGADPSSTLVSQQLWGLAQQLVDPARPGDFNQAAMELGATVCTPQRPLCSQCPVESLCRARQRVEQEQLLASGSLSGSPDVEECAPNTGQCHLCLPPSEPWDQTLGVVNFPRKASRKPPREESSATCVLEQPGALGAQILLVQRPNSGLLAGLWEFPSVTWEPSEQLQRKALLQELQRWAGPLPATHLRHLGEVVHTFSHIKLTYQVYGLALEGQTPVTTVPPGARWLTQEEFHTAAVSTAMKKVFRVYQGQQPGTCMGSKRSQVSSPCSRKKPRMGQQVLDNFFRSHISTDAHSLNSAAQ [K3S] to MRPPRAAVGSGHRKQAASQEGRQKHAKNNSQAKPSACDGLARQPEEVVLQASVSSYHLFRDVAEVTAFRGSLLSWYDQEKRDLPWRRRAEDEMDLDRRAYAVWVSEVMLQQTQVATVINYYTGWMQKWPTLQDLASASLEEVNQLWAGLGYYSRGRRLQEGARKVVEELGGHMPRTAETLQQLLPGVGRYTAGAIASIAFGQATGVVDGNVARVLCRVRAIGADPSSTLVSQQLWGLAQQLVDPARPGDFNQAAMELGATVCTPQRPLCSQCPVESLCRARQRVEQEQLLASGSLSGSPDVEECAPNTGQCHLCLPPSEPWDQTLGVVNFPRKASRKPPREESSATCVLEQPGALGAQILLVQRPNSGLLAGLWEFPSVTWEPSEQLQRKALLQELQRWAGPLPATHLRHLGEVVHTFSHIKLTYQVYGLALEGQTPVTTVPPGARWLTQEEFHTAAVSTAMKKVFRVYQGQQPGTCMGSKRSQVSSPCSRKKPRMGQQVLDNFFRSHISTDAHSLNSAAQ [K3P], the “8OG:A repair function score” value rises from -0.0766 to 0.0268.

Going from MRTPRAAVGSGHRKQAASQEGRQKHAKNNSQAKPSACDGLARQPEEVVLQASVSSYHLFRDVAEVTAFRGSLLSWYDQEKRDLPWRRRAEDEMDLDRRAYAVWVSEVMLQQTQVATVINYYTGWMQKWPTLQDLASASLEEVNQLWAGLGYYSRGRRLQEGARKVVEELGGHMPRTAETLQQLLPGVGRYTAGAIASIAFGQATGVVDGNVARVLCRVRAIGADPSSTLVSQQLWGLAQQLVDPARPGDFNQAAMELGATVCTPQRPLCSQCPVESLCRARQRVEQEQLLASGSLSGSPDVEECAPNTGQCHLCLPPSEPWDQTLGVVNFPRKASRKPPREESSATCVLEQPGALGAQILLVQRPNSGLLAGLWEFPSVTWEPSEQLQRKALLQELQRWAGPLPATHLRHLGEVVHTFSHIKLTYQVYGLALEGQTPVTTVPPGARWLTQEEFHTAAVSTAMKKVFRVYQGQQPGTCMGSKRSQVSSPCSRKKPRMGQQVLDNFFRSHISTDAHSLNSAAQ [K3T] to MRWPRAAVGSGHRKQAASQEGRQKHAKNNSQAKPSACDGLARQPEEVVLQASVSSYHLFRDVAEVTAFRGSLLSWYDQEKRDLPWRRRAEDEMDLDRRAYAVWVSEVMLQQTQVATVINYYTGWMQKWPTLQDLASASLEEVNQLWAGLGYYSRGRRLQEGARKVVEELGGHMPRTAETLQQLLPGVGRYTAGAIASIAFGQATGVVDGNVARVLCRVRAIGADPSSTLVSQQLWGLAQQLVDPARPGDFNQAAMELGATVCTPQRPLCSQCPVESLCRARQRVEQEQLLASGSLSGSPDVEECAPNTGQCHLCLPPSEPWDQTLGVVNFPRKASRKPPREESSATCVLEQPGALGAQILLVQRPNSGLLAGLWEFPSVTWEPSEQLQRKALLQELQRWAGPLPATHLRHLGEVVHTFSHIKLTYQVYGLALEGQTPVTTVPPGARWLTQEEFHTAAVSTAMKKVFRVYQGQQPGTCMGSKRSQVSSPCSRKKPRMGQQVLDNFFRSHISTDAHSLNSAAQ [K3W], the “8OG:A repair function score” value falls from 0.144 to -0.0484.

Compared with MRLPRAAVGSGHRKQAASQEGRQKHAKNNSQAKPSACDGLARQPEEVVLQASVSSYHLFRDVAEVTAFRGSLLSWYDQEKRDLPWRRRAEDEMDLDRRAYAVWVSEVMLQQTQVATVINYYTGWMQKWPTLQDLASASLEEVNQLWAGLGYYSRGRRLQEGARKVVEELGGHMPRTAETLQQLLPGVGRYTAGAIASIAFGQATGVVDGNVARVLCRVRAIGADPSSTLVSQQLWGLAQQLVDPARPGDFNQAAMELGATVCTPQRPLCSQCPVESLCRARQRVEQEQLLASGSLSGSPDVEECAPNTGQCHLCLPPSEPWDQTLGVVNFPRKASRKPPREESSATCVLEQPGALGAQILLVQRPNSGLLAGLWEFPSVTWEPSEQLQRKALLQELQRWAGPLPATHLRHLGEVVHTFSHIKLTYQVYGLALEGQTPVTTVPPGARWLTQEEFHTAAVSTAMKKVFRVYQGQQPGTCMGSKRSQVSSPCSRKKPRMGQQVLDNFFRSHISTDAHSLNSAAQ [K3L], MRHPRAAVGSGHRKQAASQEGRQKHAKNNSQAKPSACDGLARQPEEVVLQASVSSYHLFRDVAEVTAFRGSLLSWYDQEKRDLPWRRRAEDEMDLDRRAYAVWVSEVMLQQTQVATVINYYTGWMQKWPTLQDLASASLEEVNQLWAGLGYYSRGRRLQEGARKVVEELGGHMPRTAETLQQLLPGVGRYTAGAIASIAFGQATGVVDGNVARVLCRVRAIGADPSSTLVSQQLWGLAQQLVDPARPGDFNQAAMELGATVCTPQRPLCSQCPVESLCRARQRVEQEQLLASGSLSGSPDVEECAPNTGQCHLCLPPSEPWDQTLGVVNFPRKASRKPPREESSATCVLEQPGALGAQILLVQRPNSGLLAGLWEFPSVTWEPSEQLQRKALLQELQRWAGPLPATHLRHLGEVVHTFSHIKLTYQVYGLALEGQTPVTTVPPGARWLTQEEFHTAAVSTAMKKVFRVYQGQQPGTCMGSKRSQVSSPCSRKKPRMGQQVLDNFFRSHISTDAHSLNSAAQ [K3H] is lower in “8OG:A repair function score” value: 0.0859 for the first, 0.0273 for the second.

Compared with MRQPRAAVGSGHRKQAASQEGRQKHAKNNSQAKPSACDGLARQPEEVVLQASVSSYHLFRDVAEVTAFRGSLLSWYDQEKRDLPWRRRAEDEMDLDRRAYAVWVSEVMLQQTQVATVINYYTGWMQKWPTLQDLASASLEEVNQLWAGLGYYSRGRRLQEGARKVVEELGGHMPRTAETLQQLLPGVGRYTAGAIASIAFGQATGVVDGNVARVLCRVRAIGADPSSTLVSQQLWGLAQQLVDPARPGDFNQAAMELGATVCTPQRPLCSQCPVESLCRARQRVEQEQLLASGSLSGSPDVEECAPNTGQCHLCLPPSEPWDQTLGVVNFPRKASRKPPREESSATCVLEQPGALGAQILLVQRPNSGLLAGLWEFPSVTWEPSEQLQRKALLQELQRWAGPLPATHLRHLGEVVHTFSHIKLTYQVYGLALEGQTPVTTVPPGARWLTQEEFHTAAVSTAMKKVFRVYQGQQPGTCMGSKRSQVSSPCSRKKPRMGQQVLDNFFRSHISTDAHSLNSAAQ [K3Q], MRIPRAAVGSGHRKQAASQEGRQKHAKNNSQAKPSACDGLARQPEEVVLQASVSSYHLFRDVAEVTAFRGSLLSWYDQEKRDLPWRRRAEDEMDLDRRAYAVWVSEVMLQQTQVATVINYYTGWMQKWPTLQDLASASLEEVNQLWAGLGYYSRGRRLQEGARKVVEELGGHMPRTAETLQQLLPGVGRYTAGAIASIAFGQATGVVDGNVARVLCRVRAIGADPSSTLVSQQLWGLAQQLVDPARPGDFNQAAMELGATVCTPQRPLCSQCPVESLCRARQRVEQEQLLASGSLSGSPDVEECAPNTGQCHLCLPPSEPWDQTLGVVNFPRKASRKPPREESSATCVLEQPGALGAQILLVQRPNSGLLAGLWEFPSVTWEPSEQLQRKALLQELQRWAGPLPATHLRHLGEVVHTFSHIKLTYQVYGLALEGQTPVTTVPPGARWLTQEEFHTAAVSTAMKKVFRVYQGQQPGTCMGSKRSQVSSPCSRKKPRMGQQVLDNFFRSHISTDAHSLNSAAQ [K3I] is lower in “8OG:A repair function score” value: 0.107 for the first, -0.161 for the second.

Going from MRNPRAAVGSGHRKQAASQEGRQKHAKNNSQAKPSACDGLARQPEEVVLQASVSSYHLFRDVAEVTAFRGSLLSWYDQEKRDLPWRRRAEDEMDLDRRAYAVWVSEVMLQQTQVATVINYYTGWMQKWPTLQDLASASLEEVNQLWAGLGYYSRGRRLQEGARKVVEELGGHMPRTAETLQQLLPGVGRYTAGAIASIAFGQATGVVDGNVARVLCRVRAIGADPSSTLVSQQLWGLAQQLVDPARPGDFNQAAMELGATVCTPQRPLCSQCPVESLCRARQRVEQEQLLASGSLSGSPDVEECAPNTGQCHLCLPPSEPWDQTLGVVNFPRKASRKPPREESSATCVLEQPGALGAQILLVQRPNSGLLAGLWEFPSVTWEPSEQLQRKALLQELQRWAGPLPATHLRHLGEVVHTFSHIKLTYQVYGLALEGQTPVTTVPPGARWLTQEEFHTAAVSTAMKKVFRVYQGQQPGTCMGSKRSQVSSPCSRKKPRMGQQVLDNFFRSHISTDAHSLNSAAQ [K3N] to MRMPRAAVGSGHRKQAASQEGRQKHAKNNSQAKPSACDGLARQPEEVVLQASVSSYHLFRDVAEVTAFRGSLLSWYDQEKRDLPWRRRAEDEMDLDRRAYAVWVSEVMLQQTQVATVINYYTGWMQKWPTLQDLASASLEEVNQLWAGLGYYSRGRRLQEGARKVVEELGGHMPRTAETLQQLLPGVGRYTAGAIASIAFGQATGVVDGNVARVLCRVRAIGADPSSTLVSQQLWGLAQQLVDPARPGDFNQAAMELGATVCTPQRPLCSQCPVESLCRARQRVEQEQLLASGSLSGSPDVEECAPNTGQCHLCLPPSEPWDQTLGVVNFPRKASRKPPREESSATCVLEQPGALGAQILLVQRPNSGLLAGLWEFPSVTWEPSEQLQRKALLQELQRWAGPLPATHLRHLGEVVHTFSHIKLTYQVYGLALEGQTPVTTVPPGARWLTQEEFHTAAVSTAMKKVFRVYQGQQPGTCMGSKRSQVSSPCSRKKPRMGQQVLDNFFRSHISTDAHSLNSAAQ [K3M], the “8OG:A repair function score” value falls from 0.00918 to -0.238.

First: MRVPRAAVGSGHRKQAASQEGRQKHAKNNSQAKPSACDGLARQPEEVVLQASVSSYHLFRDVAEVTAFRGSLLSWYDQEKRDLPWRRRAEDEMDLDRRAYAVWVSEVMLQQTQVATVINYYTGWMQKWPTLQDLASASLEEVNQLWAGLGYYSRGRRLQEGARKVVEELGGHMPRTAETLQQLLPGVGRYTAGAIASIAFGQATGVVDGNVARVLCRVRAIGADPSSTLVSQQLWGLAQQLVDPARPGDFNQAAMELGATVCTPQRPLCSQCPVESLCRARQRVEQEQLLASGSLSGSPDVEECAPNTGQCHLCLPPSEPWDQTLGVVNFPRKASRKPPREESSATCVLEQPGALGAQILLVQRPNSGLLAGLWEFPSVTWEPSEQLQRKALLQELQRWAGPLPATHLRHLGEVVHTFSHIKLTYQVYGLALEGQTPVTTVPPGARWLTQEEFHTAAVSTAMKKVFRVYQGQQPGTCMGSKRSQVSSPCSRKKPRMGQQVLDNFFRSHISTDAHSLNSAAQ [K3V]
Second: MRRPRAAVGSGHRKQAASQEGRQKHAKNNSQAKPSACDGLARQPEEVVLQASVSSYHLFRDVAEVTAFRGSLLSWYDQEKRDLPWRRRAEDEMDLDRRAYAVWVSEVMLQQTQVATVINYYTGWMQKWPTLQDLASASLEEVNQLWAGLGYYSRGRRLQEGARKVVEELGGHMPRTAETLQQLLPGVGRYTAGAIASIAFGQATGVVDGNVARVLCRVRAIGADPSSTLVSQQLWGLAQQLVDPARPGDFNQAAMELGATVCTPQRPLCSQCPVESLCRARQRVEQEQLLASGSLSGSPDVEECAPNTGQCHLCLPPSEPWDQTLGVVNFPRKASRKPPREESSATCVLEQPGALGAQILLVQRPNSGLLAGLWEFPSVTWEPSEQLQRKALLQELQRWAGPLPATHLRHLGEVVHTFSHIKLTYQVYGLALEGQTPVTTVPPGARWLTQEEFHTAAVSTAMKKVFRVYQGQQPGTCMGSKRSQVSSPCSRKKPRMGQQVLDNFFRSHISTDAHSLNSAAQ [K3R]
The “8OG:A repair function score” value of the first is lower: -0.0444 for the first, -0.0184 for the second.
